Measured values taken from patent US20110065645A1, “Compositions and Methods for Modulating Neuron Degeneration and Neuron Guidance” (The Regents of the University of California, priority 2009, published 2011).
Peptide text beside a SMILES is read from it. * marks the point of attachment. Cbz = O=C(OCc1ccccc1)*

How the values were obtained:
Assay type in all cases: cell-based
β-catenin = β-catenin immunostaining in commissural axon growth cones; details: bath application; LiCl 2 mM
Source text: To understand how atypical PKC/Par pathway regulates axon guidance, we set out to determine the subcellular localization of aPKC, their substrates and downstream cellular effectors. […] Thus, our high-resolution confocal imaging detects a tendency of β-catenin being concentrated to one side of the growth cone (FIG. 9A). It is possible that there is low level of Wnt proteins in the culture (many neurons express Wnts). […] Therefore, it is also possible that intrinsic aPKC signaling can create chirality within the growth cone with out extrinsic signals. Such intrinsic polarity may then robustly regulate cellular morphology upon directional instructions from the environment such as a Wnt gradient. It is well known that GSK3β phosphorylates β-catenin, which then leads to proteosome-mediated degradation of β-catenin. And it is also known that GSK3β is phosphorylated and inhibited by PKCζ^(1,2). Therefore, inhibiting GSK3β or the proteosome activity generally should increase β-catenin level throughout the growth cone, canceling the asymmetry. […] We are now testing the hypothesis that Wnt proteins may locally activate PKCζ, which then inhibits GSK3β and locally stabilizes β-catenin, which is part of the asymmetric cellular mechanism leading to directional choice of a growth cone. We examine the localization of β-catenin in post-crossing commissural axon growth cones in the “post-crossing” assay and “open-book” assays.

cortical neurons = assay: Cortical neuron death/survival assay under PKCζ inhibition (Tuj1, TUNEL, DAPI staining); details: for cell death induced by PKC inhibition: pretreatment before pseudosubstrate peptide
Source text: 1. PKCζ is required for survival of cortical neurons. E15.5 cortical neurons were dissociated and cultured for 2 days in the presence of various concentrations of a cell membrane penetrating myristoylated peptide derived in the pseudosubstrate domain of PKC (FIGS. 12A-12D). This peptide is a specific inhibitor of PKCζ.
2. Axon degeneration procedes cell body death when PKC is inhibited. We examined the timing of axon degeneration and cell body death. […] The death induced by PKCζ inhibition is much faster than Aβ peptide induced neuronal death (FIG. 12D), probably because the PKCζ is an essential kinase and peptide inhibition causes instant death, whereas Aβ has to bind to cell surface receptor and trigger a signaling cascade to cause death, which requires a longer time.
3. Wnts are trophic factors for cortical neurons. […] Nuclear shrinkage (pyknosis) is a hallmark of neuronal cell death. Using DAPI staining, we can visualize the cell nuclei (FIG. 14B). […] Initial cortical axons and dendrite form and grow but axons start to disintegrate at E18.5 (FIG. 14D, from Wang et al 2006),^(13) (FIGS. 12F, 12K). Based on our preliminary results, we propose that Wnts are not only axon guidance molecules but also regulate neuronal survival and axon degeneration acting via PKC (FIG. 15).
3. Survival and cell death assays for screening of monoclonal antibodies and small compounds. We use the same cell death/survival assay as described in FIGS. 12A-14D and use microtubule staining to analyze the integrity of microtubules, DAPI stain to measure the size of cell nuclei and TUNEL staining to assay cell death. Microtubule disassembly is quantified by staining intensity of Tuj1 and Tau antibodies. The size of cell nuclei is binned into difference sizes and the distribution of the nuclei size is used as quantification of pyknosis (FIG. 14C).

Fzd3 = molecular target: T1, Fzd3 (Mus musculus, UniProt Q61086); assay: Surface biotinylation and avidin immunoprecipitation of Fzd3 in HEK293T cells; details: HEK293T co-transfection, Vgl2 value in the presence of Dvl1
T1 construct: expressed in transfected cells; host or cells: HEK293T
T1 sequence (Q61086 23-666): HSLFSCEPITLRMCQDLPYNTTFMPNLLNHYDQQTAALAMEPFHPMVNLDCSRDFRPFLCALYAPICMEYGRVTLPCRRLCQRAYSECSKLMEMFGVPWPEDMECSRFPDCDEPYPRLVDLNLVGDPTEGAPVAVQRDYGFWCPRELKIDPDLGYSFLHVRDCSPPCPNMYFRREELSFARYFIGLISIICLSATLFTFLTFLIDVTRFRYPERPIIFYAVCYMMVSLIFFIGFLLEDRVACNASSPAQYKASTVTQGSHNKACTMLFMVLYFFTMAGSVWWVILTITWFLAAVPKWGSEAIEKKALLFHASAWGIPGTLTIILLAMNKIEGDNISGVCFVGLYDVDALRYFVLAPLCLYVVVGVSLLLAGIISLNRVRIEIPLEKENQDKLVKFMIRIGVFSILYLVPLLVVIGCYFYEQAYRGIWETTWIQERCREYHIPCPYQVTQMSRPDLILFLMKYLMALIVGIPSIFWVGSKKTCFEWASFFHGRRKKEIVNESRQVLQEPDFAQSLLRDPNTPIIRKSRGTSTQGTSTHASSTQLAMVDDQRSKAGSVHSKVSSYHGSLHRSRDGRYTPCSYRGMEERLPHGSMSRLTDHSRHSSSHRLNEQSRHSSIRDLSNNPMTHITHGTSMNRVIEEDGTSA
Source text: Dvl and Vgl have antagonistic functions on Fzd3 phosphorylation. […] We transfected Fzd3-mCherry in HEK293T cells then surface biotinylated and immunoprecipitated (IP) the surface molecules with strepavidin-conjugated beads to obtain membrane-localized proteins. […] We tested whether these two Fzd3 bands represent phosphorylation states of the Frizzled3 protein, one being phosphorylated/hyperphosphorylated Fzd3 (p-Fzd3) and the other non-phosphorylated Fzd3. […] Phosphorylation of Fzds has been shown previously in Xenopus oocytes
It has been proposed that Frizzled internalization is necessary for PCP signaling and phenotypes (Gagliardi et al., 2008; Yu et al., 2007). However, it has never been directly tested whether the cell surface level of Fzd, the Wnt-PCP receptor, changes upon Wnt addition. By using our surface biotinylation and immunoprecipitation with avidin, we show here, 15 minutes after Wnt addition, cell surface level of Fzd3-EGFP is diminished (FIG. 18C, Avidin IP, lane 3 anti-EGFP IB). […] This Fzd3 receptor oscillation from and to the membrane appeared to be a Wnt-Fzd specific effect because a non-Wnt binding receptor, such as the Insulin receptor stayed the same throughout the Wnt stimulation (FIG. 18C, Avidin IP, anti-Insulin Rβ IB). The Wnt-dependent Fzd3 oscillation is quantified in FIG. 18D (cross symboled line). […] In addition, PCP components appeared to effect this Wnt dependent oscillation of Fzd3 to and from the membrane. When Dvl1 is over expressed with Fzd3, we found within 30 minutes Fzd3 is unable to be internalized (FIG. 25B, lanes 5-7 and line). However, upon the introduction of Vangl2 into the transfection mix, Fzd3 oscillation is resumed (FIG. 25B, lanes 8-10 and circle symboled line).
Surface biotinylation and immunopreciptiation. 30 hours after transfection with the indicated constructs into HEK293T cells (FuGene, Roche), followed by 8-hour incubation in Optimem and subsequent bath application of recombinant Wnt5a (R&D Systems), surface proteins were subsequently labeled on ice with 1 mg/ml of Sulfo-NHS-LC-Biotin reagent (Pierce). The cell lysates were collect over a period of 30 minutes on ice in the following lysis buffer: 20 mM Tris pH7.6, 150 mM NaCl, 1% Triton, 0.1% SDS, 2.5 mM EDTA, 2.5 mM EGTA, protease Inhibitors (Roche). For the membrane immunoprecipitation, 600 ug of protein extracts were incubated overnight and retrieved by NeutrAvidin-coated Agarose beads (Pierce), the bound fraction was boiled and loaded on SDS-PAGE gel and analyzed by western blot analysis. To visualize the input amount 20 ug of total lysate was loaded, and for the Avidin IPs the total amount was loaded for western blot analysis. The following primary antibodies were used for the immunoblots: α-Frizzled3 (Wang et al., 2006), α-Vangl2 (Santa Cruz), α-mCherry/DsRed (Clontech), α-Jun (Cell Signaling), α-phospho-Jun (Cell Signaling), α-JNK (Cell Signaling), α-phospho-JNK (Cell Signaling), α-Flag (Sigma), α-GAPDH (Chemicon), α-Insulin Rβ (Santa Cruz).

Row | Molecule | β-catenin level and asymmetry in the growth cone (β-catenin) | cell death induced by PKC inhibition (cortical neurons) | Fzd3 at the membrane relative to Fzd3-mCherry transfected alone (Fzd3) | also measured
1 | [Cl-].[Li+] [LiCl, reference compound] | elevated the level of β-catenin throughout the growth cone | block/reduce the cell death | – | pyknosis (nuclear shrinkage, DAPI staining, Image J) (cortical neurons; neuronal death induced by PKCζ inhibition): partially blocked
2 | CC(C)C[C@@H](C=O)NC(=O)[C@H](CC(C)C)NC(=O)[C@H](CC(C)C)NC(=O)OCc1ccccc1 [MG132, reference compound] (Cbz-Leu-Leu-Leu-aldehyde) | elevated the level of β-catenin throughout the growth cone | – | – | –
3 | Vgl2: Vang Gogh Like protein 2 expressed by transfection in HEK293T cells | – | – | 2 fold | –
4 | Wnt7a: recombinant Wnt7a (protein, UniProt O00755 32-349, looked up) Protein Wnt-7a: LGASIICNKIPGLAPRQRAICQSRPDAIIVIGEGSQMGLDECQFQFRNGRWNCSALGERTVFGKELKVGSREAAFTYAIIAAGVAHAITAACTQGNLSDCGCDKEKQGQYHRDEGWKWGGCSADIRYGIGFAKVFVDAREIKQNARTLMNLHNNEAGRKILEENMKLECKCHGVSGSCTTKTCWTTLPQFRELGYVLKDKYNEAVHVEPVRASRNKRPTFLKIKKPLSYRKPMDTDLVYIEKSPNYCEEDPVTGSVGTQGRACNKTAPQASGCDLMCCGRGYNTHQYARVWQCNCKFHWCCYVKCNTCSERTEMYTCK | – | block/reduce the cell death | – | axon degeneration / reduction of microtubule staining (Tuj1) (cortical neurons; 5 um pseudosubstrate peptide): much less degeneration was seen; axons remaining judged by Tuj1 staining (cortical neurons; 10 um pseudosubstrate peptide): more axons still remain
5 | sFPR2: a Wnt inhibitor, secreted Frizzled-related protein (protein, UniProt Q96HF1 25-295, looked up) Secreted frizzled-related …: LFLFGQPDFSYKRSNCKPIPANLQLCHGIEYQNMRLPNLLGHETMKEVLEQAGAWIPLVMKQCHPDTKKFLCSLFAPVCLDDLDETIQPCHSLCVQVKDRCAPVMSAFGFPWPDMLECDRFPQDNDLCIPLASSDHLLPATEEAPKVCEACKNKNDDDNDIMETLCKNDFALKIKVKEITYINRDTKIILETKSKTIYKLNGVSERDLKKSVLWLKDSLQCTCEEMNDINAPYLVMGQKQGGELVITSVKRWQKGQREFKRISRSIRKLQC | eliminated asymmetric distribution of β-catenin | – | – | –
6 | Dvl1: Dvl1-EGFP expressed by transfection in HEK293T cells (protein, left off: large carriers, Dvl1-EGFP expressed by transfection in HEK293T cells) MAETKIIYHMDEEETPYLVKLPVAPERVTLADFKNVLSNRPVHAYKFFFKSMDQDFGVVKEEIFDDNAKLPCFNGRVVSWLVLAEGAHSDAGSQGTDSHTDLPPPLERTGGIGDSRPPSFHPNVASSRDGMDNETGTESMVSHRRERARRRNRDEAARTNGHPRGDRRRDLGLPPDSASTVLSSELESSSFIDSDEEDNTSRLSSSTEQSTSSRLVRKHKCRRRKQRLRQTDRASSFSSITDSTMSLNIITVTLNMERHHFLGISIVGQSNDRGDGGIYIGSIMKGGAVAADGRIEPGDMLLQVNDVNFENMSNDDAVRVLREIVSQTGPISLTVAKCWDPTPRSYFTIPRADPVRPIDPAAWLSHTAALTGALPRYGTSPCSSAITRTSSSSLTSSVPGAPQLEEAPLTVKSDMSAIVRVMQLPDSGLEIRDRMWLKITIANAVIGADVVDWLYTHVEGFKERREARKYASSMLKHGFLRHTVNKITFSEQCYYVFGDLCSNLASLNLNSGSSGASDQDTLAPLPHPSVPWPLGQGYPYQYPGPPPCFPPAYQDPGFSCGSGSAGSQQSEGSKSSGSTRSSHRTPGREERRATGAGGSGSESDHTVPSGSGSTGWWERPVSQLSRGSSPRSQASAVAPGLPPLHPLTKAYAVVGGPPGGPPVRELAAVPPELTGSRQSFQKAMGNPCEFFVDIM | – | – | 3 fold | Fzd3 at the membrane relative to Fzd3-mCherry transfected alone (Fzd3; listed as Dvl): approximately 3 fold
